Data set [1] deals with the molecule itself. Briefly: X-ray crystal structure; self-association (homotrimer). Here is the method:
The crystals (FIG. 8) were obtained from rhNaglu protein purified from culture media treated with mannosidase-I inhibitor, Kifunensine. Naglu Kif contains identical protein sequences as rhNaglu, but different glycosylation pattern. The crystals acquired of Naglu Kif were grown at pH=7.5 and the structure of Naglu Kif was solved at 2.4 Å resolution by X-ray crystallography. Naglu structure (FIG. 9) is identified as having three distinct domains, a N-terminal domain (Domain-I, aa 24-126) followed by a (a/(3)8 barrel domain containing the catalytic glutamates (Domain-II, aa 127-467) and an all helical C-terminal domain (Domain-III, aa 468-743). Similar domain structure has been observed for another Glycoside Hydrolase family-89 protein, cpGH89, a bacterial homolog of Naglu (Ficko-Blean E, et al., PNAS May 6, 2008 vol. 105 no. 18 6560-6565). The active site is at a cleft between domains II and III and the catalytic residues are identified as E316 and E446 located on domain II.

Data set [2] concerns the molecule itself. Briefly: SEC-MALS and analytical ultracentrifugation; self-association (homotrimer).

B1: Naglu-Kif (enzyme)
chain: DEAREAAAVRALVARLLGPGPAADFSVSVERALAAKPGLDTYSLGGGGAARVRVRGSTGVAAAAGLHRYLRDFCGCHVAWSGSQLRLPRPLPAVPGELTEATPNRYRYYQNVCTQSYSFVWWDWARWEREIDWMALNGINLALAWSGQEAIWQRVYLALGLTQAEINEFFTGPAFLAWGRMGNLHTWDGPLPPSWHIKQLYLQHRVLDQMRSFGMTPVLPAFAGHVPEAVTRVFPQVNVTKMGSWGHFNCSYSCSFLLAPEDPIFPIIGSLFLRELIKEFGTDHIYGADTFNEMQPPSSEPSYLAAATTAVYEAMTAVDTEAVWLLQGWLFQHQPQFWGPAQIRAVLGAVPRGRLLVLDLFAESQPVYTRTASFQGQPFIWCMLHNFGGNHGLFGALEAVNGGPEAARLFPNSTMVGTGMAPEGISQNEVVYSLMAELGWRKDPVPDLAAWVTSFAARRYGVSHPDAGAAWRLLLRSVYNCSGEACRGHNRSPLVRRPSLQMNTSIWYNRSDVFEAWRLLLTSAPSLATSPAFRYDLLDLTRQAVQELVSLYYEEARSAYLSKELASLLRAGGVLAYELLPALDEVLASDSRFLLGSWLEQARAAAVSEAEADFYEQNSRYQLTLWGPEGNILDYANKQLAGLVANYYTPRWRLFLEALVDSVAQGIPFQQHQFDKNVFQLEQAFVLSKQRYPSQPRGDTVDLAKKIFLKYYPRWVAGSW
modifications: mostly high mannose glycans (produced with Kifunensine in the medium); N-glycans at N261, N272, N435, N503, N526 and N532 (precursor numbering)
notes: This is the protein that was crystallised (2.4 A)
For the protein B1, the binding result in data set [1] was “binds”.

B2: recombinant human Naglu (enzyme)
chain: B1 chain
modifications: glycosylated; lacks mannose-6-phosphate glycan
notes: also called rhNaglu; alpha-N-acetyl-glucosaminidase
B2: in data set [2], the binding result was “binds”.

B3: recombinant Naglu-IGFII fusion protein (enzyme)
chain: DEAREAAAVRALVARLLGPGPAADFSVSVERALAAKPGLDTYSLGGGGAARVRVRGSTGVAAAAGLHRYLRDFCGCHVAWSGSQLRLPRPLPAVPGELTEATPNRYRYYQNVCTQSYSFVWWDWARWEREIDWMALNGINLALAWSGQEAIWQRVYLALGLTQAEINEFFTGPAFLAWGRMGNLHTWDGPLPPSWHIKQLYLQHRVLDQMRSFGMTPVLPAFAGHVPEAVTRVFPQVNVTKMGSWGHFNCSYSCSFLLAPEDPIFPIIGSLFLRELIKEFGTDHIYGADTFNEMQPPSSEPSYLAAATTAVYEAMTAVDTEAVWLLQGWLFQHQPQFWGPAQIRAVLGAVPRGRLLVLDLFAESQPVYTRTASFQGQPFIWCMLHNFGGNHGLFGALEAVNGGPEAARLFPNSTMVGTGMAPEGISQNEVVYSLMAELGWRKDPVPDLAAWVTSFAARRYGVSHPDAGAAWRLLLRSVYNCSGEACRGHNRSPLVRRPSLQMNTSIWYNRSDVFEAWRLLLTSAPSLATSPAFRYDLLDLTRQAVQELVSLYYEEARSAYLSKELASLLRAGGVLAYELLPALDEVLASDSRFLLGSWLEQARAAAVSEAEADFYEQNSRYQLTLWGPEGNILDYANKQLAGLVANYYTPRWRLFLEALVDSVAQGIPFQQHQFDKNVFQLEQAFVLSKQRYPSQPRGDTVDLAKKIFLKYYPRWVAGSWGAPGGGGGAAAAAGGGGGGAPGGGGGAAAAAGGGGGGAPGGGGGAAAAAGGGGGGAPLCGGELVDTLQFVCGDRGFYFSRPASRVSRRSRGIVEECCFRSCDLALLETYCATPAKSE
modifications: glycosylated; negative for M6P glycosylation
notes: Secreted from HT1080 cells
In the case of B3, the binding result in data set [2] is “binds”.

Source of the values: patent US20220133863A1 (SHIRE HUMAN GENETIC THERAPIES, published 2022).
